{"source": "paper PMC9440123", "about": "“Rtt105 regulates RPA function by configurationally stapling the flexible domains” (Nature Communications, 2022)", "binders": {"B1": {"name": "Rtt105^Cy5 (Rtt105^C13S labeled with Cy5 on Cys-12) (natural protein, S. cerevisiae, UniProt P40063 1-208, looked up)", "chain": "MYSNHNLNSDDCSFDWNEEKAAELQRTGVSFDRSLTPQSLRTSTRRLSEENKQQSGTMHIDTSPSVVSDIISSRRDRSQDFFGPHSSSPIAPSERQRADQRSRLESMRLTRRRDKMTKVRGGLEKMEEMIMQGEHLREMQRLKQEAQKNALPSDMAEYMEWQNNEDLEDDELLAFIEKQETYKNELEHFLNNANKNVYENNSYPNSHT", "modifications": "Cy5 (maleimide chemistry) on Cys-12", "notes": "Rtt105, S. cerevisiae, single-Cys version; also called Cy5-labeled Rtt105; fluorescent Rtt105; source: E. coli, purified similar to the wild-type protein, labeled with Cy5-maleimide"}, "B2": {"name": "F-A-B-DBD-A^MB543 (domain or fragment)", "chain": "MSSVQLSRGDFHSIFTNKQRYDNPTGGVYQVYNTRKSDGANSNRKNLIMISDGIYHMKALLRNQAASKFQSMELQRGDIIRVIIAEPAIVRERKKYVLLVDDFELVQSRADMVNQTSTFLDNYFSEHPNETLKDEDITDSGNVANQTNASNAGVPDMLHSNSNLNANERKFANENPNSQKTRPIFAIEQLSPYQNVWTIKARVSYKGEIKTWHNQRGDGKLFNVNFLDTSGEIRATAFNDFATKFNEILQEGKVYYVSKAKLQPAKPQFTNLTHPYELNLDRDTVIEECFDESNVPKTHFNFIKLDAIQNQEVNSNVDVLGIIQTINPHFELTSRAGKKFDRRDITIVDDSGFSISVGLWNQQALDFNLPEGSVAAIKGVRVTDFGGKSLSMGFSSTLIPNPEIPEAYALKGWYDSKGRNANFITL", "modifications": "4-azidophenylalanine (4AZP) in DBD-A carrying the MB543 fluorophore; position not given"}, "B3": {"name": "Regulator of Ty1 Transposition 105 (Rtt105) (natural protein, S. cerevisiae, UniProt P40063 1-208, looked up)", "chain": "MYSNHNLNSDDCCFDWNEEKAAELQRTGVSFDRSLTPQSLRTSTRRLSEENKQQSGTMHIDTSPSVVSDIISSRRDRSQDFFGPHSSSPIAPSERQRADQRSRLESMRLTRRRDKMTKVRGGLEKMEEMIMQGEHLREMQRLKQEAQKNALPSDMAEYMEWQNNEDLEDDELLAFIEKQETYKNELEHFLNNANKNVYENNSYPNSHT", "notes": "Rtt105, S. cerevisiae, a 24 kDa protein; RSF-Duet1 plasmid; also called Rtt105^WT; unlabeled Rtt105"}, "B4": {"name": "(dT)97 (ssDNA)", "DNA": "TTTTTTTTTTTTTTTTTTTTTTTTTTTTTTTTTTTTTTTTTTTTTTTTTTTTTTTTTTTTTTTTTTTTTTTTTTTTTTTTTTTTTTTTTTTTTTTTT"}}, "key": {"[1]": {"target": "T1, RPA (RPA70/RPA32/RPA14) (Saccharomyces cerevisiae, UniProt P22336;P26754;P26755 1-621;1-273;1-122)", "test": "EMSA; no Rtt105; 5 mM MgCl2; stoichiometric, apparent Kd; EMSA: 25 mM Tris-Cl pH 7.5, 200 mM NaCl, 5 mM MgCl2, 5% glycerol, 0.05% Tween-20, 25 C; anisotropy/FRET: 30 mM HEPES pH 7.8, 100 mM KCl, 6% glycerol, 5 mM MgCl2, 1 mM bME, 23 C (stopped flow 25 C)", "conditions": "protein: recombinant; copies: 1;1;1; label: 5'-Cy5"}, "[2]": {"target": "RPA (RPA70/RPA32/RPA14);Rtt105 (Saccharomyces cerevisiae;Saccharomyces …, UniProt P22336;P26754;P26755;P40063 1-621;1-273;1-122;1-208, |)", "sequence (P22336 whole entry, chain 1 of 4, one chain of several)": "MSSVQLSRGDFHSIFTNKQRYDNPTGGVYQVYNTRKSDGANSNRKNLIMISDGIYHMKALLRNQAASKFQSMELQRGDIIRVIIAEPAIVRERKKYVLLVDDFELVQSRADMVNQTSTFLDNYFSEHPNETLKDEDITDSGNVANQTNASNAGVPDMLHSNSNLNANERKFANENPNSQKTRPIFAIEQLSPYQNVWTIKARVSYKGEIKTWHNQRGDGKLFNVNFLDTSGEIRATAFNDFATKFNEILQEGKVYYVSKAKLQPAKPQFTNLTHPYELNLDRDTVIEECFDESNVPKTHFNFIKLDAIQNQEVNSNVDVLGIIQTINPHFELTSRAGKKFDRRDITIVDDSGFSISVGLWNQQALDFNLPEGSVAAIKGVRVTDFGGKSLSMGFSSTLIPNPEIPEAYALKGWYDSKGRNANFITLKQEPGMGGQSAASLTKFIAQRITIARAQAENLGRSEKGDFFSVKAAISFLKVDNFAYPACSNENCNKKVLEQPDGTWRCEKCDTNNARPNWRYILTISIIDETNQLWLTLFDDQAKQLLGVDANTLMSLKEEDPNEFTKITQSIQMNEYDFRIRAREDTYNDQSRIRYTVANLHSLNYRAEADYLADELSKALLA", "sequence (P26754 whole entry, chain 2 of 4, one chain of several)": "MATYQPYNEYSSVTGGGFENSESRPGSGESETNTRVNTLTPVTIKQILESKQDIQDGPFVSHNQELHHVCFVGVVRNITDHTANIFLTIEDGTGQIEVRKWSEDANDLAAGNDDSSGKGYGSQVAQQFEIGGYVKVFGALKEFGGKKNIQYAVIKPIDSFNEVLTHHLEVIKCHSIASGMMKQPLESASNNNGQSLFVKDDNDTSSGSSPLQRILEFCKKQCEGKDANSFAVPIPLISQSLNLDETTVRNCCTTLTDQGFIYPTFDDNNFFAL", "sequence (P26755 whole entry, chain 3 of 4, one chain of several)": "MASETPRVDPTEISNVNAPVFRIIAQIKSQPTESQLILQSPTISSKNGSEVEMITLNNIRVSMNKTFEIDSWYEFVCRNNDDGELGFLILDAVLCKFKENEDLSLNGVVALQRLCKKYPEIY", "test": "EMSA; Rtt105 premixed 1:1; 5 mM MgCl2; stoichiometric, apparent Kd; EMSA: 25 mM Tris-Cl pH 7.5, 200 mM NaCl, 5 mM MgCl2, 5% glycerol, 0.05% Tween-20, 25 C; anisotropy/FRET: 30 mM HEPES pH 7.8, 100 mM KCl, 6% glycerol, 5 mM MgCl2, 1 mM bME, 23 C (stopped flow 25 C)", "conditions": "protein: recombinant;recombinant; tags: ;; copies: 1;1;1;1; label: 5'-Cy5"}, "[3]": {"target": "RPA-DBD-A^Cy3 (S. cerevisiae) (UniProt P22336)", "test": "FRET or BRET; stopped-flow FRET, Cy3 excited at 535 nm, Cy5 emission; 100 nM each of RPA^Cy3 and Rtt105^Cy5; 25 °C; RPA reaction buffer; no DNA"}, "[4]": {"target": "RPA-DBD-D^Cy3 (S. cerevisiae) (UniProt P22336)", "test": "FRET or BRET; stopped-flow FRET, Cy3 excited at 535 nm, Cy5 emission; 100 nM each of RPA^Cy3 and Rtt105^Cy5; 25 °C; RPA reaction buffer; no DNA"}, "[5]": {"target": "T2, Replication Protein A (RPA), S. cerevisiae heterotrimer of RPA70, RPA32 and RPA14 (S. cerevisiae, UniProt P22336 1-621; P26754 1-273; P26755 1-122)", "T2 construct": "RPA70 (Rfa1), large subunit of S. cerevisiae RPA; holds OB-F, DBD-A, DBD-B and DBD-C; RPA32 (Rfa2), middle subunit of S. cerevisiae RPA; holds DBD-D and the winged-helix domain; RPA14 (Rfa3), small subunit of S. cerevisiae RPA; holds OB-E; also called yeast RPA; unlabeled RPA; copies: + +", "T2 sequence (P26754 whole entry, chain 2 of 2, the tested form may be a part)": "as the sequence (P26754 whole entry, chain 2 of 4, one chain of several) above", "T2 sequence (P26755 whole entry, chain 3 of 2, the tested form may be a part)": "as the sequence (P26755 whole entry, chain 3 of 4, one chain of several) above", "test": "AUC; sedimentation velocity as a14; Rtt105^Cy5, RPA and Rad52 mixed in equimolar concentrations, no ssDNA; 280 nm and 650 nm", "conditions": "both partners purified"}, "[6]": {"target": "RPA-DBD-D^MB543 (S. cerevisiae) (UniProt P22336)", "test": "optical tweezers with confocal fluorescence (C-trap); Rtt105^Cy5-RPA premixed 1:1, incubated with stretched lambda ssDNA, then moved to a buffer channel; 30 mM HEPES pH 7.8, 100 mM KCl, 6% glycerol, 5 mM MgCl2"}, "[7]": {"target": "RPA-DBD-A-Cy5 (Saccharomyces cerevisiae, UniProt P22336;P26754;P26755 1-621;1-273;1-122)", "sequence (P26754 whole entry, chain 2 of 2)": "as the sequence (P26754 whole entry, chain 2 of 4, one chain of several) above", "sequence (P26755 whole entry, chain 3 of 2)": "as the sequence (P26755 whole entry, chain 3 of 4, one chain of several) above", "test": "stopped-flow FRET; no Rtt105; kobs1 18.2, kobs2 2.7 s-1; EMSA: 25 mM Tris-Cl pH 7.5, 200 mM NaCl, 5 mM MgCl2, 5% glycerol, 0.05% Tween-20, 25 C; anisotropy/FRET: 30 mM HEPES pH 7.8, 100 mM KCl, 6% glycerol, 5 mM MgCl2, 1 mM bME, 23 C (stopped flow 25 C)", "conditions": "protein: recombinant; tags: Cy5 on DBD-A via 4AZP; copies: 1;1;1; label: 5'-Cy3"}, "[8]": {"target": "RPA-DBD-A-Cy5;Rtt105 (Saccharomyces cerevisiae;Saccharomyces …, UniProt P22336;P26754;P26755;P40063 1-621;1-273;1-122;1-208, |)", "sequence (P26754 whole entry, chain 2 of 2)": "as the sequence (P26754 whole entry, chain 2 of 4, one chain of several) above", "sequence (P26755 whole entry, chain 3 of 2)": "as the sequence (P26755 whole entry, chain 3 of 4, one chain of several) above", "test": "stopped-flow FRET; with Rtt105; kobs1 15, kobs2 1.9 s-1; EMSA: 25 mM Tris-Cl pH 7.5, 200 mM NaCl, 5 mM MgCl2, 5% glycerol, 0.05% Tween-20, 25 C; anisotropy/FRET: 30 mM HEPES pH 7.8, 100 mM KCl, 6% glycerol, 5 mM MgCl2, 1 mM bME, 23 C (stopped flow 25 C)", "conditions": "protein: recombinant;recombinant; tags: Cy5 on DBD-A via 4AZP;; copies: 1;1;1;1; label: 5'-Cy3"}, "[9]": {"target": "RPA-DBD-D-Cy5 (Saccharomyces cerevisiae, UniProt P22336;P26754;P26755 1-621;1-273;1-122)", "sequence (P26754 whole entry, chain 2 of 2)": "as the sequence (P26754 whole entry, chain 2 of 4, one chain of several) above", "sequence (P26755 whole entry, chain 3 of 2)": "as the sequence (P26755 whole entry, chain 3 of 4, one chain of several) above", "test": "stopped-flow FRET; no Rtt105; kobs1 100.3, kobs2 16, kobs3 1.4 s-1; EMSA: 25 mM Tris-Cl pH 7.5, 200 mM NaCl, 5 mM MgCl2, 5% glycerol, 0.05% Tween-20, 25 C; anisotropy/FRET: 30 mM HEPES pH 7.8, 100 mM KCl, 6% glycerol, 5 mM MgCl2, 1 mM bME, 23 C (stopped flow 25 C)", "conditions": "protein: recombinant; tags: Cy5 on DBD-D via 4AZP; copies: 1;1;1; label: 3'-Cy3"}, "[10]": {"target": "RPA-DBD-D-Cy5;Rtt105 (Saccharomyces cerevisiae;Saccharomyces …, UniProt P22336;P26754;P26755;P40063 1-621;1-273;1-122;1-208, |)", "sequence (P26754 whole entry, chain 2 of 2)": "as the sequence (P26754 whole entry, chain 2 of 4, one chain of several) above", "sequence (P26755 whole entry, chain 3 of 2)": "as the sequence (P26755 whole entry, chain 3 of 4, one chain of several) above", "test": "stopped-flow FRET; with Rtt105; kobs1 0.5, kobs2 48, kobs3 3.6 s-1; EMSA: 25 mM Tris-Cl pH 7.5, 200 mM NaCl, 5 mM MgCl2, 5% glycerol, 0.05% Tween-20, 25 C; anisotropy/FRET: 30 mM HEPES pH 7.8, 100 mM KCl, 6% glycerol, 5 mM MgCl2, 1 mM bME, 23 C (stopped flow 25 C)", "conditions": "protein: recombinant;recombinant; tags: Cy5 on DBD-D via 4AZP;; copies: 1;1;1;1; label: 3'-Cy3"}, "[11]": {"target": "B3", "test": "other fluorescence titration; MB543 fluorescence quenching; 200 nM fluorescent RPA or F-A-B in the cuvette, unlabeled Rtt105 added stepwise; 23 °C; 30 mM HEPES pH 7.8, 100 mM KCl, 6% glycerol, 5 mM MgCl2, 1 mM βME; quadratic fit, apparent KD", "conditions": "both partners purified"}, "[12]": {"target": "T2, Replication Protein A (RPA), S. …", "test": "cross-linking; BS3 (5 mM) cross-linking of RPA with Rtt105 in 30 mM HEPES, 200 mM KCl, pH 7.8; SDS-PAGE shift and mass spectrometry of cross-linked peptides (XL-MS)", "conditions": "both partners purified"}, "[13]": {"target": "RPA-DBD-A^MB543 (S. cerevisiae) (UniProt P22336)", "test": "other fluorescence titration; MB543 fluorescence quenching; 200 nM fluorescent RPA or F-A-B in the cuvette, unlabeled Rtt105 added stepwise; 23 °C; 30 mM HEPES pH 7.8, 100 mM KCl, 6% glycerol, 5 mM MgCl2, 1 mM βME; quadratic fit, apparent KD"}, "[14]": {"target": "T1, RPA (RPA70/RPA32/RPA14)", "test": "competition; facilitated exchange: excess free RPA displaces prebound labeled RPA; EMSA: 25 mM Tris-Cl pH 7.5, 200 mM NaCl, 5 mM MgCl2, 5% glycerol, 0.05% Tween-20, 25 C; anisotropy/FRET: 30 mM HEPES pH 7.8, 100 mM KCl, 6% glycerol, 5 mM MgCl2, 1 mM bME, 23 C (stopped flow 25 C)", "conditions": "protein: recombinant; copies: 1;1;1"}, "[15]": {"target": "hRPA (human, UniProt P27694;P15927;P35244 1-616;1-270;1-121)", "sequence (P27694 whole entry, chain 1 of 3)": "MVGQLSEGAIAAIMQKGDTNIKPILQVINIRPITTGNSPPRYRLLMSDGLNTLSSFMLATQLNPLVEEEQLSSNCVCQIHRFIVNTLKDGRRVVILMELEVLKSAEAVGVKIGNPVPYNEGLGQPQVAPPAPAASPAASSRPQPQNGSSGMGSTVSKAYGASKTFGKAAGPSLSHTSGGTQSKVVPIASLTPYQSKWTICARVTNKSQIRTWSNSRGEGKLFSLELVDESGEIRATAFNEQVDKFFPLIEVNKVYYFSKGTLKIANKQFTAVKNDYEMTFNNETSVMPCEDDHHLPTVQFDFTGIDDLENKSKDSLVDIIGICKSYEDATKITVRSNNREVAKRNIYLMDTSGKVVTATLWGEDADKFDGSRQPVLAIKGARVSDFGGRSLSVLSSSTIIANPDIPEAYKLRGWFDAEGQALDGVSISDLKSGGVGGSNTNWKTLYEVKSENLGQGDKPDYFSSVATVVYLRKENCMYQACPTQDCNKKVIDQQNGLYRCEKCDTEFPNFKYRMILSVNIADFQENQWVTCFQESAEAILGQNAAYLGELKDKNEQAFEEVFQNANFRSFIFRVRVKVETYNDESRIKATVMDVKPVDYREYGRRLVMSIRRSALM", "sequence (P15927 whole entry, chain 2 of 3)": "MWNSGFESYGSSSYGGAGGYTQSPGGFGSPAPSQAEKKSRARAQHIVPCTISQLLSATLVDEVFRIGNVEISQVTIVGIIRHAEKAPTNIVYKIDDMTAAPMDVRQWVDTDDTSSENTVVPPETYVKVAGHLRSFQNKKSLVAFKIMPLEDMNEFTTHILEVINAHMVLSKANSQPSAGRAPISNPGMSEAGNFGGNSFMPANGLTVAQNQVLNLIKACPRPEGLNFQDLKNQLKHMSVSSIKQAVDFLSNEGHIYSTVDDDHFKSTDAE", "sequence (P35244 whole entry, chain 3 of 3)": "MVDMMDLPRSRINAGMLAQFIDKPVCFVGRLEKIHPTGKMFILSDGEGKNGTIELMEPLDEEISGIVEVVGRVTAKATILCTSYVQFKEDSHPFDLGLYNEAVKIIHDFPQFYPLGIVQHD", "test": "fluorescence anisotropy; 20 nM DNA; stoichiometric; no RPAIN; EMSA: 25 mM Tris-Cl pH 7.5, 200 mM NaCl, 5 mM MgCl2, 5% glycerol, 0.05% Tween-20, 25 C; anisotropy/FRET: 30 mM HEPES pH 7.8, 100 mM KCl, 6% glycerol, 5 mM MgCl2, 1 mM bME, 23 C (stopped flow 25 C)", "conditions": "protein: recombinant; copies: 1;1;1; label: 5'-FAM"}, "[16]": {"target": "hRPA;RPAIN (human;human, UniProt P27694;P15927;P35244;Q86UA6 1-616;1-270;1-121;1-219, |)", "sequence (P27694 whole entry, chain 1 of 4)": "as the sequence (P27694 whole entry, chain 1 of 3) above", "sequence (P15927 whole entry, chain 2 of 4)": "as the sequence (P15927 whole entry, chain 2 of 3) above", "sequence (P35244 whole entry, chain 3 of 4)": "as the sequence (P35244 whole entry, chain 3 of 3) above", "sequence (Q86UA6 whole entry, chain 4 of 4)": "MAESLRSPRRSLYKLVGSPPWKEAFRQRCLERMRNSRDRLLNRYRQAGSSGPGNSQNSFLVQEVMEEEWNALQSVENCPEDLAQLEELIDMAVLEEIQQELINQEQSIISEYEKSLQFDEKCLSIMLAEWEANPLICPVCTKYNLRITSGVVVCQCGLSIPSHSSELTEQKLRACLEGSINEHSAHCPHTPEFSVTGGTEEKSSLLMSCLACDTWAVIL", "test": "fluorescence anisotropy; 20 nM DNA; stoichiometric; hRPA:RPAIN 1:2; EMSA: 25 mM Tris-Cl pH 7.5, 200 mM NaCl, 5 mM MgCl2, 5% glycerol, 0.05% Tween-20, 25 C; anisotropy/FRET: 30 mM HEPES pH 7.8, 100 mM KCl, 6% glycerol, 5 mM MgCl2, 1 mM bME, 23 C (stopped flow 25 C)", "conditions": "protein: recombinant;recombinant; tags: ;N-terminal SUMO tag removed; copies: 1;1;1;2; label: 5'-FAM"}}}
{"binder": "TTTTTTTTTTTTTTTTTTTTTTTTTTTTTT (ssDNA)", "note": "[5'-Cy5-(dT)30]", "values": [{"measurement": "Kd", "setting": "[1]", "result": "0.005 ± 0.0007", "unit": "µM"}, {"measurement": "Kd", "setting": "[2]", "result": "0.0057 ± 0.0012", "unit": "µM"}]}
{"binder": "B1", "values": [{"measurement": "kobs (single-step model)", "setting": "[3]", "result": 0.2, "unit": "s⁻¹"}, {"measurement": "kobs,1 (two-step model)", "setting": "[4]", "result": 3.5, "unit": "s⁻¹"}, {"measurement": "kobs,2 (two-step model)", "setting": "[4]", "result": 0.2, "unit": "s⁻¹"}, {"measurement": "binding result", "setting": "[5]", "result": "binds"}, {"measurement": "t1/2 of dissociation from RPA on ssDNA", "setting": "[6]", "result": 5, "unit": "s"}]}
{"binder": "TTTTTTTTTTTTTTTTTTTTTTTTTTTTTTTTTTTTTTTT (ssDNA)", "note": "[5'-Cy3-(dT)40]", "values": [{"measurement": "binding result", "setting": "[7]", "result": "binds"}, {"measurement": "binding result", "setting": "[8]", "result": "binds"}]}
{"binder": "TTTTTTTTTTTTTTTTTTTTTTTTTTTTTTTTTTTTTTTT (ssDNA)", "note": "[3'-Cy3-(dT)40]", "values": [{"measurement": "binding result", "setting": "[9]", "result": "binds"}, {"measurement": "binding result", "setting": "[10]", "result": "binds"}]}
{"binder": "B2", "values": [{"measurement": "Kd", "setting": "[11]", "result": 0.0339, "unit": "µM"}]}
{"binder": "B3", "values": [{"measurement": "binding result", "setting": "[12]", "result": "binds"}, {"measurement": "Kd", "setting": "[13]", "result": 0.0611, "unit": "µM"}]}
{"binder": "B4", "values": [{"measurement": "binding result", "setting": "[14]", "result": "binds"}]}
{"binder": "TTTTTTTTTTTTTTTTTTTTTTTTT (ssDNA)", "note": "[5'-FAM-(dT)25]", "values": [{"measurement": "binding result", "setting": "[15]", "result": "binds"}, {"measurement": "binding result", "setting": "[16]", "result": "binds"}]}
